Assay results published in patent US20040138431A1.

How the values were obtained:
[1] = target: P75 and trkA receptors on rat PC-12 cell membranes (rat) (UniProt P35739); test: radioreceptor assay, competitive binding against NGF standard on rat PC-12 cell membranes
[2] = target: P75 and trkA receptors on rat PC-12 cell membranes (rat) (UniProt P35739); test: cell-based or functional assay

P75 and trkA receptors on rat PC-12 cell membranes (rat), sequence (P35739 33-799, chain 1 of 2): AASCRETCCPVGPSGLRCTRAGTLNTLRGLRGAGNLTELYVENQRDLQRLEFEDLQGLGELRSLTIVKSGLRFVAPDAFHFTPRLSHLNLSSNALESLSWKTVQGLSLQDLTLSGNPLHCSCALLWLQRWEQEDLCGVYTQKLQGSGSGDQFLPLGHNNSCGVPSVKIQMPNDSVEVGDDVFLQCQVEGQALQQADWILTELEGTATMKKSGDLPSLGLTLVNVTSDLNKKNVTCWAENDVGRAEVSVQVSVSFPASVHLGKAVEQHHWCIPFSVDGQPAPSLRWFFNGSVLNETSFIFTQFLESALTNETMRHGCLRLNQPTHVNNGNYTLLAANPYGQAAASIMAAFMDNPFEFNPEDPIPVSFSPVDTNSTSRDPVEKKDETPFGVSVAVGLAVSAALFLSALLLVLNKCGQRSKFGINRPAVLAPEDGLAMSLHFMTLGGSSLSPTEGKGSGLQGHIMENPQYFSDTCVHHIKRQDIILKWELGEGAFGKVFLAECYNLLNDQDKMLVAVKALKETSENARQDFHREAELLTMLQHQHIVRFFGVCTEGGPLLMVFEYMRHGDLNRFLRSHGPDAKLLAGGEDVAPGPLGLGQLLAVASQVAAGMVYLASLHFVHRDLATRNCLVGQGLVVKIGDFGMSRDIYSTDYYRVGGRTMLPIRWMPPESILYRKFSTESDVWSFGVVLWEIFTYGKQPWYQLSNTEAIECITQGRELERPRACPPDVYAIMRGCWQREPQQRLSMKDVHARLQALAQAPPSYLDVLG
P75 and trkA receptors on rat PC-12 cell membranes (rat), sequence (P07174 30-425, chain 2 of 2, further chain): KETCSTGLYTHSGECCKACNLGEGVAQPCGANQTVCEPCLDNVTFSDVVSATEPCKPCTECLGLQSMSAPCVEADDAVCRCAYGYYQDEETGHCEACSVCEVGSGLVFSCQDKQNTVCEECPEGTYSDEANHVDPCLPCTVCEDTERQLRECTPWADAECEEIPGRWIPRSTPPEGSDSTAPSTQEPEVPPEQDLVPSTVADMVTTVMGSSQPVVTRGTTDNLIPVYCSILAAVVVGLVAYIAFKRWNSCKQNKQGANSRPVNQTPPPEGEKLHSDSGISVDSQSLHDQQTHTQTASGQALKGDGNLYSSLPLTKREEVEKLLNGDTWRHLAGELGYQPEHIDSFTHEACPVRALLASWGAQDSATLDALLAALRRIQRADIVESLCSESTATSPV
120/120 rhNGF homodimer (NGF-120, full-length 120/120 nerve growth factor), sequence (P01138 122-241 limits assumed): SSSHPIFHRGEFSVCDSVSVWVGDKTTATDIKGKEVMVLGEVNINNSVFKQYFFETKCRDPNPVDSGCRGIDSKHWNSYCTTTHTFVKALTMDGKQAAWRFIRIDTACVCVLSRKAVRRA

Work on “120/120 rhNGF homodimer (NGF-120, full-length 120/120 nerve growth factor) (from UniProt P01138 122-241) (ligand)” yielded a percent as active as the 118/118 species [1] of 80 to 90% and a PC-12 based assay, activity relative to the 118/118 form [2] of 60%.
